These results are taken from article PMC3974700, “SDA, a DNA Aptamer Inhibiting E- and P-Selectin Mediated Adhesion of Cancer and Leukemia Cells, the First and Pivotal Step in Transendothelial Migration during Metastasis Formation”.

The target of data set [1] is P-selectin/IgG-Fc chimera (human, UniProt P16109 42-771). The experiment in a line: filter binding; 3 mM Mg2+; Selection buffer: 3 mM MgCl2 in PBS, pH 7.5 (with 1 mg/mL BSA as described for SELEX beads); room temperature, 30 min; DNA <1 nM, protein 0-1 uM. To be noted: protein: commercial; tags: IgG-Fc fusion; chain copies: 2; label: 32P (T4 polynucleotide kinase).
The target in data set [2] is T1, E-selectin/IgG-Fc chimera (human, UniProt P16581 22-556).
T1 sequence: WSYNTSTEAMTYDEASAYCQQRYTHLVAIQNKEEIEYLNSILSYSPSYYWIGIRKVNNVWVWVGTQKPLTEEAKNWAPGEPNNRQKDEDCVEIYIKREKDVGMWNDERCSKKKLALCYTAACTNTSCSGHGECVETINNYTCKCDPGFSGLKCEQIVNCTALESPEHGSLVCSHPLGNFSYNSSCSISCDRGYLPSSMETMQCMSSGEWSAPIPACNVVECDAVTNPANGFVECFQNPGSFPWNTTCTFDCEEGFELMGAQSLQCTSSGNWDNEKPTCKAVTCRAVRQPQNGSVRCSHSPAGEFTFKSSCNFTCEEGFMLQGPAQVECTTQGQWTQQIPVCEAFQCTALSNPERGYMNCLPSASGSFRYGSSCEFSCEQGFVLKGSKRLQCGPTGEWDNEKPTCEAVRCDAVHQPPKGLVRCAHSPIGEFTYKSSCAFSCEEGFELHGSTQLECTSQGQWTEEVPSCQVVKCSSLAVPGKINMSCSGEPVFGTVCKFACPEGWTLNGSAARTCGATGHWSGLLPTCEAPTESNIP
Described as above. To be noted: protein: commercial; tags: IgG-Fc fusion; chain copies: 2; label: 32P (T4 polynucleotide kinase).

Chain of P-selectin/IgG-Fc chimera (P16109 42-771, change not shown): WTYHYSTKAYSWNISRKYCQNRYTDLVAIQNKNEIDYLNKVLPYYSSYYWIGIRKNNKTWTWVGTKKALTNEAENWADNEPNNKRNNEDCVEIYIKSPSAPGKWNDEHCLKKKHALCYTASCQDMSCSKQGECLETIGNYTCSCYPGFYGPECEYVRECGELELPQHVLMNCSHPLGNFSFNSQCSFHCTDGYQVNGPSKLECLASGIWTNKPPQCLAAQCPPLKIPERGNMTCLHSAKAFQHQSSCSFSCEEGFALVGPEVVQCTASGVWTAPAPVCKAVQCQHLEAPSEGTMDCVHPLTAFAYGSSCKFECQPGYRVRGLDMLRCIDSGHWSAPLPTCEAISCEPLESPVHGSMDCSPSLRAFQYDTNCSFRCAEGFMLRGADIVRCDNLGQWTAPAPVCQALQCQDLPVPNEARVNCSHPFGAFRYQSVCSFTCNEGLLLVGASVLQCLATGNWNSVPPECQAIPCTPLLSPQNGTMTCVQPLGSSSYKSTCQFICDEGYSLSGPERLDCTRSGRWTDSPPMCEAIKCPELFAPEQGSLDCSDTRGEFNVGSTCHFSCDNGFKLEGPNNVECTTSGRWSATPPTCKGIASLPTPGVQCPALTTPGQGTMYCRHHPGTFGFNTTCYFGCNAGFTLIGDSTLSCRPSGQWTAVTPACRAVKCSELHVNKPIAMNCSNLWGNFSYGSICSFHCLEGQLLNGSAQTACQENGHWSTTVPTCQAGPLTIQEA

B1: control DNA (ssDNA)
DNA: GCCTGTTGTGAGCCTCCTAACGAGGAGTGGGCTAAAGGTATGTTGTGGGTTTGGTTCCATGCTTATTCTTGTCTCCC
For the molecule B1, the binding result in data set [1] and in data set [2] was “no binding” throughout.

B2: SDA (ssDNA)
DNA: GCCTGTTGTGAGCCTCCTAACGATTTGGATTTGGGGTGGAGGGTATGGTTTGTGCTGGCGTTCTCATTTCCCATGCTTATTCTTGTCTCCC
On to B2, for which the results for the Kd in data set [1] and in data set [2] were 95 ± 18 nM and 98 ± 16 nM, respectively.
